Assay [1] has as its target T1, human ITGa3 on human-derived cell lines (human, UniProt P26006 33-1051).
T1 construct: whole, on cells; also called ITGa3 on H292 cells
T1 sequence (looked up): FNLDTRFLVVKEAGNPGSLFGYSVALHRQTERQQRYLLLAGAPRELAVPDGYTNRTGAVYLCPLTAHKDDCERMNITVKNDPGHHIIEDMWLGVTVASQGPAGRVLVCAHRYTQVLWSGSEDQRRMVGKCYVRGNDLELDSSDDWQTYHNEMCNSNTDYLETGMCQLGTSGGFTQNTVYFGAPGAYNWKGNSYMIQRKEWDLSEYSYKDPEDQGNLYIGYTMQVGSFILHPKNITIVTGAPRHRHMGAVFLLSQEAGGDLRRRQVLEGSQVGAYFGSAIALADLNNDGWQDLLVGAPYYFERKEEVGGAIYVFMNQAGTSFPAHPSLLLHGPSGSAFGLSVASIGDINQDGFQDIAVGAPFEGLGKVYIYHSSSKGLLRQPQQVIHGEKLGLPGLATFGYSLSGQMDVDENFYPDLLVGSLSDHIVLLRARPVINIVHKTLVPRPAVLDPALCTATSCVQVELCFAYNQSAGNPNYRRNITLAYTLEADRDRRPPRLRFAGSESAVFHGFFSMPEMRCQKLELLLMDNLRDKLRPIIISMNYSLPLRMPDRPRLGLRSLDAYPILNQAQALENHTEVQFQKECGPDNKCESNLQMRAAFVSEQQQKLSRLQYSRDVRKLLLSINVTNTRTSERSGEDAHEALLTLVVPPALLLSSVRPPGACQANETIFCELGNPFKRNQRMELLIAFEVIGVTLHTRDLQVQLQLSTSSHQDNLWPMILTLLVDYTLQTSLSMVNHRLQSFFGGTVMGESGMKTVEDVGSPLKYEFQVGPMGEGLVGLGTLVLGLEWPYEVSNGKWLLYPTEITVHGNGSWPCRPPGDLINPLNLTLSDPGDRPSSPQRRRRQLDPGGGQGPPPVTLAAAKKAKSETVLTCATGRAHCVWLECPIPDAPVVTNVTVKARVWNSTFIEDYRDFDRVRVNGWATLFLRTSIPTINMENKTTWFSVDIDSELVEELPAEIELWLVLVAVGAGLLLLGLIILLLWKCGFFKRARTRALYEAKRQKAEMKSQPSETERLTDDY
Kind of assay: FACS on H292 cells; goat anti-human IgG Alexa Fluor 647 secondary; used for comparison. As to the method: […], the binding of activatable anti-ITGa3 antibodies of the present disclosure comprising the VH of SEQ ID NO: 7, a VL selected from the VL of SEQ ID NO: 11 and the VL of SEQ ID NO: 12, with a masking moiety selected from the 570 masking moiety (SEQ ID NO: 22) and the 574 masking moiety (SEQ ID NO: 26), and the CM1 substrate comprising the sequence […] (SEQ ID NO: 232) to the H292 cell line was evaluated using a cell-binding FACS assay. The VM2 chimera (VH of SEQ ID NO: 1 and VL of SEQ ID NO: 2) was used for comparison. Using a standard labeling protocol for FACS, cells were labeled with anti-ITGa3 antibody or anti-ITGa3 activatable antibody of the present disclosure at the indicated concentrations, and the bound antibody was detected with a goat anti-human IgG Alexa Fluor 647 secondary antibody.

In assay [2] the target is T1, human ITGa3 on human-derived cell lines. Kind of assay: FACS on HT29 cells; apparent Kd from binding curve. As to the method: (§1) In this study, the binding of the antibodies of the present disclosure to the indicated cell lines were performed using a standard FACS labelling method.
Assay [3] has the same target. Kind of assay: FACS on BxPC3 cells; shift of the ActAb Kd against the ITGa3 Ab Kd. As to the method: as §1
Assay [4] shares this target. Description: FACS on FaDu cells; apparent Kd from binding curve. As to the method: as §1
The target is the same in assay [5]. Description: FACS on MDA MB231 cells; apparent Kd from binding curve. As to the method: as §1
Assay [6] has the same target. Kind of assay: FACS on HT29 cells; shift of the ActAb Kd against the ITGa3 Ab Kd. The procedure: as §1
Assay [7] shares this target. Description: FACS on FaDu cells; shift of the ActAb Kd against the ITGa3 Ab Kd. As to the method: as §1
Assay [8] has the same target. Description: FACS on BxPC3 cells; apparent Kd from binding curve. The procedure: as §1
For assay [9] the target is unchanged. Kind of assay: FACS on MDA MB231 cells; shift of the ActAb Kd against the ITGa3 Ab Kd. As to the method: as §1
The target is the same in assay [10]. Description: FACS on MDA MB 231 cells (FIG. 17B); apparent Kd from binding curve. As to the method:
In this study, the binding of the antibodies of the present disclosure to the indicated cell lines were performed using a standard FACS labelling method. Briefly, in FIG. 17A cells were labeled with the indicated antibodies of the present disclosure: anti-human ITGa3 antibody drug conjugate (anti-ITGa3 huVM2 Hc2/Lc1-spdb-DM4, “ITGa-DM4”) or an anti-human ITGa3 activatable antibody drug conjugate (anti-ITGA3 Hc2-570-2001-spdb-DM4, “ITGA3-570-2001-DM4”), where the anti-ITGa3 AADC was used with and without activation by a protease that recognized the substrate sequence. In FIG. 17B cells were labeled with the indicated antibodies of the present disclosure: anti-human ITGa3 antibody (anti-ITGa3 huVM2 Hc2T62G/Lc1 antibody, “ITGa3 Ab”) or an anti-human ITGa3 activatable antibody (anti-ITGA3 Hc2T62G-570-2001, “ITGA3-570-2001; anti-ITGA3 Hc2T62G-2331-3001, “ITGA3-2331-3001”) and their corresponding AADCs conjugated to vc-MMAD at the indicated concentrations and subsequently detected with an Alexa Fluor 647 labeled goat anti-human IgG secondary antibody.

For assay [11], the target named is T2, mouse ITGa3 on mouse-derived Renca renal carcinoma cells (mouse, UniProt Q62470 33-1053).
T2 construct: whole, on cells
T2 sequence (looked up): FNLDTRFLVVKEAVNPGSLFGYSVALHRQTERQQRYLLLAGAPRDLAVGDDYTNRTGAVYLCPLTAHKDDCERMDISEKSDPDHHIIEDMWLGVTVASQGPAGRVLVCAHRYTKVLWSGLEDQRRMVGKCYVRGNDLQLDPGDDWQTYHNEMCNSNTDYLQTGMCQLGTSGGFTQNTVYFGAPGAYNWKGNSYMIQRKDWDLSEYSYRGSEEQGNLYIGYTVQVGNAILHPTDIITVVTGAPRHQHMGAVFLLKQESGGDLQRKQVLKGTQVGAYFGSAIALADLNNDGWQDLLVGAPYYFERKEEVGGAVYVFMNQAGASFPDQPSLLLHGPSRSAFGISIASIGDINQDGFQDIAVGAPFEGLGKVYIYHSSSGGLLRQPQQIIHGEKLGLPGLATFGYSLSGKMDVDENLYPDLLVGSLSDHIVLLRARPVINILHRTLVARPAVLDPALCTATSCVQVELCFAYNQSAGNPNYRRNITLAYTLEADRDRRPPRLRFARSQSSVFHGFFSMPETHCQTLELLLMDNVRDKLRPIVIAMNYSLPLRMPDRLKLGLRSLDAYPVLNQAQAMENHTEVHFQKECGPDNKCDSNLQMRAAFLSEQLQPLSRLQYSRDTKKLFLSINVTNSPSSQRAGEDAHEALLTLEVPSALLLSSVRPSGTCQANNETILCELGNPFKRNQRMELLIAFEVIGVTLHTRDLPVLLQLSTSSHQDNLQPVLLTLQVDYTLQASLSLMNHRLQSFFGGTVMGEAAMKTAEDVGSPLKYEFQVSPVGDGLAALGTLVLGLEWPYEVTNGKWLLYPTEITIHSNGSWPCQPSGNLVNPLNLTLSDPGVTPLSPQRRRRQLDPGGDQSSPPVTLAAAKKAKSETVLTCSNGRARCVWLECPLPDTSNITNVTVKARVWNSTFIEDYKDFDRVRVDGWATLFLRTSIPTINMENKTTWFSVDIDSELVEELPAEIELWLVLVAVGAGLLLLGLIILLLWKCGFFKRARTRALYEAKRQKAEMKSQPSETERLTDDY
Kind of assay: FACS on Renca cells; goat anti-human IgG Alexa Fluor 647 secondary.

The values that follow come from US20190309072A1 (CYTOMX THERAPEUTICS, published 2019).

B1: VM2 chimera (antibody, V domains shown)
VH: EVQLQESGAELVKPGTSVRLSCKASGYTFTEYIIHWVKQRSGQGLEWIGWFYPESGSVKYNETFKGRATLTADKSSSTVYMELSRLTSEDSAVYFCARHEERDYYGYYAMDYWGQGTSVTVSS
VL: DIVMTQTPTTLAASPGEKIIITCSASSSISSNYLHWYQQKPGFSPKLLIYRTSNLASGVPARFSGSGSGTSYSLTIGTMEAEDVATYYCQQGSSIPRFTSGSGTKLEIK
notes: Chimera of the mouse VM2 variable domains; also called VM2 chimera anti-ITGa3 antibody
B1: the binding result in assay [1] is recorded as “binds”.

B2: anti-ITGA3 Hc2T62G-570-2001 (antibody)
heavy: not shown
light: QGQSGQGECKTRQDFEMHDCVYGGGSSGGSISSGLLSGRSDNHGGGSDIQMTQSPSSLSASVGDRVTITCSASSSISSNYLHWYQQKPGKVPKLLIYRTSNLASGVPSRFSGSGSGTDYTLTISSLQPEDVATYYCQQGSSIPRFTSGGGTKVEIKRTVAAPSVFIFPPSDEQLKSGTASVVCLLNNFYPREAKVQWKVDNALQSGNSQESVTEQDSKDSTYSLSSTLTLSKADYEKHKVYACEVTHQGLSSPVTKSFNRGEC
notes: also called ITGa3-ActAb; ITGa3 ActAb
With B2, the Kd in assay [2] was 6.03 nM; in assay [4] it was 4.58 nM; in [5] it was 7.42 nM; in [8], 7.39 nM; in assay [10], 18 nM. Further, the “Apparent Masking Efficiency” value in assay [3] was found to be 10 fold; in assay [6] it was 25 fold; in assay [7], 14 fold; in [9] it was 8 fold.

B3: anti-ITGA3 Hc2T62G-570-2001 conjugated to vc-MMAD (antibody, human IgG1, kappa)
heavy: not shown
light: B2 light
modifications: vc-MMAD conjugated to the antibody; chain and residues of attachment not stated
notes: also called ITGa3 570-2001-MMAD; ITGa3-570-2001-MMAD
In the case of B3, in assay [10], the Kd came to 17.5 nM.

B4: anti-ITGa3 huVM2 Hc2T62G/Lc1 antibody (antibody, human IgG1, kappa)
heavy: not shown
light: DIQMTQSPSSLSASVGDRVTITCSASSSISSNYLHWYQQKPGKVPKLLIYRTSNLASGVPSRFSGSGSGTDYTLTISSLQPEDVATYYCQQGSSIPRFTSGGGTKVEIKRTVAAPSVFIFPPSDEQLKSGTASVVCLLNNFYPREAKVQWKVDNALQSGNSQESVTEQDSKDSTYSLSSTLTLSKADYEKHKVYACEVTHQGLSSPVTKSFNRGEC
notes: also called ITGa3 Ab; ITGA3-Ab
B4: the Kd was 0.24 nM in assay [2]; 0.32 nM in assay [4]; 0.91 nM in assay [5]; 0.77 nM in assay [8]; 0.906 nM in assay [10]. The binding result in [11] is listed as “no binding”.

B5: anti-ITGa3 huVM2 Hc2T62G/Lc1 antibody conjugated to vc-MMAD (antibody, human IgG1, kappa)
heavy: not shown
light: B4 light
modifications: vc-MMAD conjugated to the antibody; chain and residues of attachment not stated
notes: Antibody drug conjugate of m29; also called ITGa3 Ab-MMAD; huVM2 Hc2T62G-MMAD ADC
On to B5, for which, in [10], the Kd is 1.08 nM.
